What was measured:
[1] = target: human thrombomodulin (hTBM) expressed from the B200 vector on porcine aortic endothelial cells (UniProt P07204)
collagen agonist = assay: cell-based or functional assay; conditions: scale: % more aggregation than the monoallelic vWF edit blood

Chain of UniProt P07204 (P07204 whole entry, looked up): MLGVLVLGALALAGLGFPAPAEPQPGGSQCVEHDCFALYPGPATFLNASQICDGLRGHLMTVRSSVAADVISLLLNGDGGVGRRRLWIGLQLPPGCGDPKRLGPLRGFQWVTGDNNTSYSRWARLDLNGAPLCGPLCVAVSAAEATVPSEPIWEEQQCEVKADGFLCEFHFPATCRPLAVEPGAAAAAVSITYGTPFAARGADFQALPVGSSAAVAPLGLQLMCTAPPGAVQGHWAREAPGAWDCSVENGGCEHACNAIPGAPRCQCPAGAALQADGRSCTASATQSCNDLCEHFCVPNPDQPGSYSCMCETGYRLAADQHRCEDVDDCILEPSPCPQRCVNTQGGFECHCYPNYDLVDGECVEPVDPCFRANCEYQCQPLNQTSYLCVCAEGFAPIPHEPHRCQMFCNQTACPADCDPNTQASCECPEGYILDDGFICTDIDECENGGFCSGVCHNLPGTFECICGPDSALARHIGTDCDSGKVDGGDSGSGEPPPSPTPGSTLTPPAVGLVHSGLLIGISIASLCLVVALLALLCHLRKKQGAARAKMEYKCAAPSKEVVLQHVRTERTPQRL

| Substance | activated protein C (APC) assay on pAEC: human thrombin and human Protein C added, Chromogenix S-2366 substrate, absorbance at 405 nm, nM APC/mg protein [1] | whole blood platelet aggregation (Chrono-log Whole Blood Aggregometer) after collagen agonist (2 ug/mL) (collagen agonist) |
| --- | --- | --- |
| human thrombin | pAEC from a transgenic pig expressing hTBM and hEPCR from the B200 vector showed a significantly elevated APC levels when compared to GTKO transgenic pig control |  |
| porcine von Willebrand factor (unmodified) (from UniProt Q28833 438-2482) |  | 50 |

Reference: patent publication US20220211018A1
